Reference: paper PMC6071955
pKd: −log10 of the molar value. “And” between values parts separate entries of the source, which are not always exact repeats. Equal entries are not always repeated. Where two headings read alike, the source gives them in different places.

Tests used:
[1] = molecular target: FusC(E83A) mutant, catalytically inactive (Pectobacterium (species and strain of the cloned gene not stated)); experiment: ITC; ferredoxin (200 uM) titrated in 10 ul steps, 27 titrations, into the chamber with FusC(E83A) (20 uM); 20 mM HEPES, 50 mM NaCl pH 7.5; MicroCal VP-ITC; 299.15 K (Table 2); parameters from the average of the two best of three reactions
[2] = molecular target: FusC(E83A) mutant, catalytically inactive (Pectobacterium (species and strain of the cloned gene not stated)); experiment: as above; remark: listed apart in the source

“ferredoxin from the plant Arabidopsis thaliana (from UniProt P16972 53-145) (natural protein)” was tested, and the Ka [1] was 452000 M⁻¹ and 805000 M⁻¹ and 629000 M⁻¹, the pKd [1] was 5.91 and 5.76 and 5.66 and the dH [1] was -5.2 kcal/mol and -4.91 kcal/mol and -5.06 kcal/mol. For the same substance, the stoichiometry N [1] was 1.12 and 1.06 and 1.09 and the pKd [2] was 5.72.
